Changes are numbered by the printed parent chain.
T1: PD1 N-terminal loop-GST fusion protein (Homo sapiens)
T1 chain: LDSPDRPWNP

B1: M1-5 anti-PD1 antibody (human IgG4/kappa, C-terminal 6xHis) (antibody, V domains shown)
VH: QVQLVESGGDVVQPGGSLRLSCTVSGAVFRDLGMEWVRQAPGKGLEWLAVIWYDGGRKHYADSVKGRFTISRDNSRNMLFLQMNGLRVDDTAMYYCTRSHSTDDYWGQGTLVTVSS
VL: EIVLTQSPATLSVSPGERATLSCRASQSISSDLAWFQQKPGQAPRLIIHGASKRATGIPARFSGSGSGTDFTLTISSLEPEDFAVYYCQQRDSWPLNFGGGTKVEIK
B2: M2-5 anti-PD1 antibody (human IgG4/kappa, C-terminal 6xHis) (antibody, V domains shown)
VH: QVQLVESGGDVVQPGGSLRLSCAASGVVFSDYGLYWVRQAPGKGLEWVALIWYDGSKKFYADSVKGRFSISRDNSKNMLYLQMNNLRADDSAIYYCSRGIRQGPWFAYWGQGTRVTVSP
VL: B1 VL with V13L, A34T, H49Y, G50D, K53N, A84V, Q89L, D92S, S93D, N97T
B3: M1-4 anti-PD1 antibody (human IgG4/kappa, C-terminal 6xHis) (antibody, V domains shown)
VH: QVQLVESGGDVVQPGGSLRLSCAVSGVTFGDFGFEWVRQAPGKGLEWVAVIWYDGSRKHYAESVRGRFTISRDNSRNMMYLEMTGLRVEDTAKYYCTRSHSHEDYWGQGTLVTVSS
VL: B1 VL with V13L, S31N, D32Y, P40S, G50D, S52F, T56A, A60T, S93N
B4: M2-3 anti-PD1 antibody (human IgG4/kappa, C-terminal 6xHis) (antibody, V domains shown)
VH: QGHLVESGGDVVLPGGSLRLSCTESGVDLSDFGIHWVRQTPGKGLEWVALIWYDGSKKFYADSVKDRFTISRDNSKNMVYLEMISLRVEDTAMYFCARGIRRGPWFTYWGPGTLVTVST
VL: B1 VL with A9V, T10I, V13L, K39T, H49Y, G50D, K53N, D92S, S93N, N97T
B5: M1-3 anti-PD1 antibody (human IgG4/kappa, C-terminal 6xHis) (antibody, V domains shown)
VH: QEWLVESGGDVVQPGGSLRLSCATSKVTFNDFGIHWVRQAPGKGLEWVAIIWYDGSRNHYADSVRGRFTLSRDNSKNMVHLHMSSLRTEDTAMYYCARGIHSNDDYWGQGTMVTVSS
VL: EIVLTQSPATLSLSPGERATLSCRTSQSVSSDLAWFQQKPGQAPRLFIFDASKRVNGIPARFSGSGSGTDFTLTISSLEPEDFAVYYCQQRTDWPLTFGGGSRVEIK
B6: M2-1 anti-PD1 antibody (human IgG4/kappa, C-terminal 6xHis) (antibody, V domains shown)
VH: QVQLVESGGDVVQPGGSLRLSCSASGLVFRDYGMNWVRQAPGKGLEWVGLIWYDGTKKYYSDFVKGRFTISRDNSKNMLYLQMNNLRAEDTAIYYCARFLIGATRRGNAMDYWGQGTSVIVSS
VL: EVVLTQSPATLSLSPGERATLSCRASQSIDSDLAWSQQKTGQPPRLIIYDASNRATGIPARFSGSGSGTDFTLTISSLEPEDFAVYYCQQRSDWPLTFGGGTKVEIR
B7: M2-2 anti-PD1 antibody (human IgG4/kappa, C-terminal 6xHis) (antibody, V domains shown)
VH: B6 VH with F29I, R30S, T56S, M78I, I93M, I120T
VL: B6 VL with T40P
B8: M1-6 anti-PD1 antibody (human IgG4/kappa, C-terminal 6xHis) (antibody, V domains shown)
VH: B3 VH with P14S, T28V, G30S, F32Y, E62D, R65Q, S75F, M79L, E82Q
VL: EIVLTQSPATLSLSPGERATLSCGASQNIDNSLAWFQQKPGQAPRLIIYDASKRATGIPARFSGSGSGTDFTLTISTLEPEDFAVYYCQQRDHWPLNFGGGTKVEVK
B9: M1-5 anti-PD1 antibody (human IgG4/k, without C-terminal His tag) (antibody, V domains shown)
VH: B1 VH
VL: B1 VL
B10: 17D8 anti-PD1 antibody (human IgG4/k, without C-terminal His tag) (antibody, V domains shown)
VH: QVQLVESGGDVVQPGGSLRLSCAASGVAFSNYGMHWVRQAPGKGLEWVAVIWYDGSNKYYADSVKGRFTISRDNSKNMLYLQMNSLRAEDTAMYYCARNDDYWGQGTLVTVSS
VL: B6 VL with V2I, I29V, D30S, D32Y, S36Y, T40P, P43A, D93N, R107K
B11: M2-1 anti-PD1 antibody (human IgG4/k, without C-terminal His tag) (antibody, V domains shown)
VH: B6 VH
VL: B6 VL
B12: M2-4 anti-PD1 antibody (human IgG4/kappa, C-terminal 6xHis) (antibody, V domains shown)
VH: QVQLVESGGDVVQPGGSLRLSCAASGVAFRNYGMHWVRQAPGKGLEWVAIIWYDGSNKYYADSVKGRFTISRDNSKNMLYLQMNSLRAEDTAMYYCARLSIGTTHYFDTDDYWGQGTSVTVSS
VL: EIVLTQSPATLSLSPGERATLSCRASQSVSSYLAWYQQKVGQAPRLIIFDASNRATGIPARFSGSGSGTDFTLTITSLDPEDFAVYYCQQRSAWPLTFGGGTKVEIR
B13: 17D8 anti-PD1 antibody (human IgG4/kappa, C-terminal 6xHis) (antibody, V domains shown)
VH: B10 VH
VL: B12 VL with V40P, F49Y, T76S, D79E, A93N, R107K
B14: M1-7 anti-PD1 antibody (human IgG4/kappa, C-terminal 6xHis) (antibody, V domains shown)
VH: QLQLVESGGDVVQPGGSLRLSCAASGVVFSDFGLEWVRQAPGKGLEWLAVIWYDGSRKHYADSVKGRFTISRDNSKNMLYLQMNSLRVEDTAMYYCARCHSKEDYWGQGTLVTVSS
VL: EIEVTQSPATLSLSPGERATLSCRASQSIDTDLAWFQQRPGQTPRLIIYDASKRATGIPARFSGGGSGTDFTLTISSLEPEDFAVYYCQQRTTWPLTFGGGTKVEIK
B15: M1-2 anti-PD1 antibody (human IgG4/kappa, C-terminal 6xHis) (antibody, V domains shown)
VH: B14 VH with L2V, V28A, F32Y, L34M, M78I, V88A, E103D
VL: B14 VL with E3V, V4L, S7F, A25T, S28N, T31S, R39K, T43A, K53N, S76T
B16: M1-1 anti-PD1 antibody (human IgG4/kappa, C-terminal 6xHis) (antibody, V domains shown)
VH: B10 VH with S30R, N31D, N57K, A61G, I70V, Q82E, S85G, R87K
VL: EIVLTQSPATLSLSPGERATLSCRASQSVSNSLSWYQQNPGQSPRLIIYDTSKRATGIPARFSGSGSGTDFTLTINNLETEDFAVYYCHQRSDWPLTFGGGTKVEIK

Target: T2, PD1 extracellular domain, without Fc fusion (Homo sapiens, UniProt Q15116)
T2 sequence (Q15116 25-170): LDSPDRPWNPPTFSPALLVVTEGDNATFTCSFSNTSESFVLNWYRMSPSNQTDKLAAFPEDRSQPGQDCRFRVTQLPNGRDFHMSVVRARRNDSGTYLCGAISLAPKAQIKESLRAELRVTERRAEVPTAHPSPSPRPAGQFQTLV
Test: ELISA

binding result | Binder
binds | B1
binds | B2
binds | B3
binds | B4
binds | B5
binds | B6
binds | B7
binds | B8

Target: T2, PD1 extracellular domain, without Fc …
Test: SPR

binding result | Binder
binds | B9
binds | B10
binds | B11

Target: full-length human PD1 expressed on the surface of NS1 cells (human, UniProt Q15116)
Sequence (Q15116 25-288): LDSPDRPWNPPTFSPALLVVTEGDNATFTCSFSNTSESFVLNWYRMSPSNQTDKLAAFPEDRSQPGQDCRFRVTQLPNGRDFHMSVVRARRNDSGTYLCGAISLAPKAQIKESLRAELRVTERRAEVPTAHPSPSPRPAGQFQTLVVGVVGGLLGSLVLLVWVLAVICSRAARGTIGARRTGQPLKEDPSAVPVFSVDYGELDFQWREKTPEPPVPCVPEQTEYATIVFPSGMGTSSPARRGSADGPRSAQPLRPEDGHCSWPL
Test: flow cytometry on cells

binding result | Binder
binds | B12
binds | B1
binds | B2
binds | B13
binds | B3
binds | B4
binds | B14
binds | B15
binds | B5
binds | B16
binds | B6
binds | B7
binds | B8

Target: T1, PD1 N-terminal loop-GST fusion protein
Test: ELISA

binding result | Binder
binds | B12
binds | B1
binds | B2
binds | B3
binds | B4
no binding | B15
binds | B5
binds | B16
binds | B6
binds | B7
binds | B8

From article doi:10.1101/2020.12.12.421834 (bioRxiv, 2020)
